Measurements from US20230391879A1 (INTERVET, published 2023).
Residue numbers refer to the chain shown, from its start.

Key:
[1] = target: T1, Canine IL-31RA ECD-10His (canine); assay: ELISA, IL-31RA coated
T1 construct: made in HEK-293 or CHO cells and coated on the ELISA plates; also called canine IL-31 receptor alpha extracellular domain HIS-tagged protein; cIL-31RA
T1 chain: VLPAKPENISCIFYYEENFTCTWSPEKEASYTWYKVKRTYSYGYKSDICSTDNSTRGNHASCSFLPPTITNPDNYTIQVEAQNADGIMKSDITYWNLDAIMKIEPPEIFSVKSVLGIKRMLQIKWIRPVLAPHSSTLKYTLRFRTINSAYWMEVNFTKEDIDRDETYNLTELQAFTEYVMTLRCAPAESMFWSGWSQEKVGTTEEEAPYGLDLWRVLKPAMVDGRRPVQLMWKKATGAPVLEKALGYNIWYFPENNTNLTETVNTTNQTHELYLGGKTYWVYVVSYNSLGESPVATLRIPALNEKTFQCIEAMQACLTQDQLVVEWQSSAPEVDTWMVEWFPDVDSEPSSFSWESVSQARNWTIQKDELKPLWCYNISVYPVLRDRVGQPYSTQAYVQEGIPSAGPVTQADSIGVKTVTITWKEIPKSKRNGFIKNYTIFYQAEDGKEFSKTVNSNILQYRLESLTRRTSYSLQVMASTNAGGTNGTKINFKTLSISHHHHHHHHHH

[2] = target: T1, Canine IL-31RA ECD-10His; assay: ELISA (FIG. 6C)
[3] = target: T1, Canine IL-31RA ECD-10His; assay: ELISA (FIG. 6A)
[4] = target: T1, Canine IL-31RA ECD-10His; assay: ELISA (FIG. 6B)

B1: 28F12 (antibody, V domains shown)
VH: EVQLVESDGGLAQPGRSLKLSCAASGFTFSDYYMAWVRQAPTKGLEWVATISYDGSSTYYRDSVRGRFTISRDNAKSTLYLQMDSLRSEDTATYYCARGPLTDWAPNWFAYWGQGTLVTVSS
VL: DIQMTQSPASLSASLGETVTIQCQTSEDIYSGLAWYQQKPGKSPQFLIYGASRLEDGVPSRFSGSGSGTQYSLKISSMQTEDEGVYFCQQGLKYPNTFGAGTKLELK
notes: Rat monoclonal antibody from a hybridoma; also called rat mAb 28F12
- binding result [1]: binds

B2: caninized 44E2VH2VK1 (antibody, V domains shown)
VH: EVQLVESGGDLVKPEGSLRLSCVVSGFSLTSNGVSWVRQAPGKGLQWIAAISSGGSTYYNSVLKSRLTISRDNAKNTLYLQMNSLRTEDTAVYYCARRLSGYNYVPFAYWGQGTLVTVSS
VL: EIVMTQSPASLSLSQEEKVTITCKASQNIYKHLAWYQQKPGQAPKLLIYNANSLQTGVPSRFSGSGSGTDFSFTISSLEPEDVAVYYCQQYYSGDTFGAGTKVELKR
notes: Caninized antibody, canine IgG-Bm heavy chain and canine kappa light chain; also called c44E2; c44E2VH2-cIgGBm + c44E2VK1-cCK
- binding result [2]: binds

B3: caninized 44E2VH5VK1 (antibody, V domains shown)
VH: ELTLQESGPGLVKPSQTLSLTCTVSGFSLTSNGVSWIRQRPGRGLEWMGAISSGGSTYYNSVLKSRISITADTAKNQFSLQLSSMTTEDTAVYYCARRLSGYNYVPFAYWGQGTLVTVSS
VL: B2 VL
notes: Caninized antibody, canine IgG-Bm heavy chain and canine kappa light chain; also called c44E2VH5-cIgGBm + c44E2VK1-cCK
- binding result [2]: binds

B4: caninized 44E2VH5VK2 (antibody, V domains shown)
VH: B3 VH
VL: B2 VL with V58I, Y87F
notes: Caninized antibody, canine IgG-Bm heavy chain and canine kappa light chain; also called c44E2; c44E2VH5-cIgGBm + c44E2VK2-cCK
- binding result [2]: binds

B5: caninized 44E2VH4VK1 (antibody, V domains shown)
VH: B3 VH with T23V, F27G, L29V
VL: B2 VL
notes: Caninized antibody, canine IgG-Bm heavy chain and canine kappa light chain; also called c44E2VH4-cIgGBm + c44E2VK1-cCK
- binding result [2]: binds

B6: caninized 44E2VH2VK2 (antibody, V domains shown)
VH: B2 VH
VL: B2 VL with V58I, Y87F
notes: Caninized antibody, canine IgG-Bm heavy chain and canine kappa light chain; also called c44E2; c44E2VH2-cIgGBm + c44E2VK2-cCK
- binding result [2]: binds

B7: 48B1 (antibody, V domains shown)
VH: EVQLVESGGGLVQPGRTLKLFCVASGFTFNNYWMTWIRQAPGKGLEWVASITNTGGSTYYPDSVKGRFTISRDNAKSTLYLQMNSLRSEDTATYYCTRGPDYGGHLNWFVYWGQGTLVTVSS
VL: DIVMTQSPTSMSISVGDRVTMNCKASQNVGSNVDWYQQKTGQSPKLLIYKASNRYTGVPDRFTGSGSGTDFTFTISNMQAEDLAVYYCMQSNSYPPTFGGGTKLELK
notes: Rat monoclonal antibody from a hybridoma; also called rat mAb 48B1
- binding result [1]: binds

B8: 20B8 (antibody, V domains shown)
VH: EVQLVESGGGLVQPGRSLKLSCVASGFTFNNYWMTWIRQAPGKGLEWVASITNTGGSTYYPDSVKGRFTISRDNAKSTLYLQMNSLRSEDTATYYCTRGPTTVVGGWFAYWGQGTLVTVSS
VL: B7 VL with K50R, A51P
notes: Rat monoclonal antibody from a hybridoma; also called rat mAb 20B8
- binding result [1]: binds

B9: 22B4 (antibody, V domains shown)
VH: B7 VH with T17S, F21S, N31K, T58S, P61S, D90E, V110A
VL: B7 VL with Q38E, L47V
notes: Rat monoclonal antibody from a hybridoma; also called rat mAb 22B4
- binding result [1]: binds

B10: 7D7 (antibody, V domains shown)
VH: B7 VH with T17S, F21S, Y59F, V110A
VL: B7 VL with V15A, F62C
notes: Rat monoclonal antibody from a hybridoma; also called rat mAb 7D7
- binding result [1]: binds

B11: caninized 10A12VH1VL5 (antibody, V domains shown)
VH: EVQLVESGGDLVKPGGSLRLSCVASGFTFSNYYMAWVRQAPGKGLQWVASISTGGGNTYYRDSVKGRFTISRDNAKNTLYLQMNSLRAEDTAMYYCAKHGTLYFDYWGQGTLVTVSS
VL: QPVLTQPPSLSASLGTTARLTCERSSGDIGDSYVSWYQQKPGSPPRDLLYVDDQRPSGVSKSFSGSKDTSANAGLLLISGLQPEDEADYYCQSYDSNIDGPVFGGGTHLTVLG
notes: Caninized antibody, canine IgG-Bm heavy chain and canine lambda light chain; also called c10A12VH1-cIgGBm + c10A12VL5-cCL
- binding result [3]: binds

B12: caninized 10A12VH1VL6 (antibody, V domains shown)
VH: B11 VH
VL: B11 VL with L48V, L49I, G58E, Y90F
notes: Caninized antibody, canine IgG-Bm heavy chain and canine lambda light chain; also called c10A12VH1-cIgGBm + c10A12VL6-cCL
- binding result [3]: binds

B13: caninized 10A12VH2VL6 (antibody, V domains shown)
VH: B11 VH with V23A, K98R
VL: B11 VL with L48V, L49I, G58E, Y90F
notes: Caninized antibody, canine IgG-Bm heavy chain and canine lambda light chain; also called c10A12; c10A12VH2-cIgGBm + c10A12VL6-cCL
- binding result [3]: binds

B14: caninized 10A12VH2VL5 (antibody, V domains shown)
VH: B11 VH with V23A, K98R
VL: B11 VL
notes: Caninized antibody, canine IgG-Bm heavy chain and canine lambda light chain; also called c10A12VH2-cIgGBm + c10A12VL5-cCL
- binding result [3]: binds

B15: 4G7 (antibody, V domains shown)
VH: EVQLQQYGAELGKPGTSVKLSCKVSGYNIRSTFMHWVNQRPGKGLEWIGRIDPVNGNTIYSEKFKSKATLTADTSSNTAYMQLSQLKSDDTAIYFCAMFNYAGHSGDYWGQGVMVTVSS
VL: DIQMTQSPSSMSVSLGDTVTITCRASQDVGIYVNWFQQKPGKSPRRMIYRATNLADGVPSRFSGSRSGSDYSLTISSLESEDVADYHCLQYDEYPYTFGAGTKLELK
notes: Rat monoclonal antibody from a hybridoma; also called rat mAb 4G7
- binding result [1]: binds

B16: caninized 28F12VH2VK3 (antibody, V domains shown)
VH: EVQLVESGGDLVKPGGSLRLSCAASGFTFSDYYMAWVRQAPGKGLQWVATISYDGSSTYYRDSVRGRFTISRDNAKNTLYLQMNSLRAEDTAMYYCARGPLTDWAPNWFAYWGQGTLVTVSS
VL: DIVMTQSPASLSLSQEEKVTITCQTSEDIYSGLAWYQQKPGQAPKLLIYGASRLEDGVPSRFSGSGSGTDFSFTISSLEPEDVAVYFCQQGLKYPNTFGAGTKVELKR
notes: Caninized antibody, canine IgG-Bm heavy chain and canine kappa light chain; also called c28F12; c28F12VH2-cIgGBm + c28F12VK3-cCK
- binding result [4]: binds

B17: caninized 28F12VH1VK4 (antibody, V domains shown)
VH: B16 VH with A23V, R98K
VL: DIVMTQTPLSLSVSPGETASISCQTSEDIYSGLAWFRQKPGQSPQLLIYGASRLEDGVPDRFSGSGSGTDFTLRISTVEADDTGVYFCQQGLKYPNTFGAGTKVELKR
notes: Caninized antibody, canine IgG-Bm heavy chain and canine kappa light chain; also called c28F12VH1-cIgGBm + c28F12VK4-cCK
- binding result [4]: binds

B18: caninized 28F12VH1VK3 (antibody, V domains shown)
VH: B16 VH with A23V, R98K
VL: B16 VL
notes: Caninized antibody, canine IgG-Bm heavy chain and canine kappa light chain; also called c28F12VH1-cIgGBm + c28F12VK3-cCK
- binding result [4]: binds

B19: caninized 28F12VH2VK2 (antibody, V domains shown)
VH: B16 VH
VL: B16 VL with D1E, F87Y
notes: Caninized antibody, canine IgG-Bm heavy chain and canine kappa light chain; also called caninized 28F12VH2K2; c28F12
- binding result [4]: binds

B20: caninized 28F12VH2VK4 (antibody, V domains shown)
VH: B16 VH
VL: B17 VL
notes: Caninized antibody, canine IgG-Bm heavy chain and canine kappa light chain; also called c28F12VH2-cIgGBm + c28F12VK4-cCK
- binding result [4]: binds

B21: 44E2 (antibody, V domains shown)
VH: QVQLKESGPGLVQPSQTLSLTCTVSGFSLTSNGVSWVRQPPGKGLEWIAAISSGGSTYYNSVLKSRLSISRDTSKSQVFLKMNSLQTEDTAIYFCTRRLSGYNYVPFAYWGQGTLVTVSS
VL: DIQMTQSPSLLSASVGDRVTLNCKASQNIYKHLAWCQQKLGEPPNLLISNANSLQTGIPSRFSGSGSGTDFTLTISSLQPEDVATYFCQQYYSGDTFGAGTKLELK
notes: Rat monoclonal antibody from a hybridoma; also called rat mAb 44E2
- binding result [1]: binds

B22: 47F3 (antibody, V domains shown)
VH: EVQLVESGGGLVQPGRSMKLSCVASGFTFSNYYMAWVRQAPTKGLEWVASISTGGGNTYYRDSVKGRFTISRDNAKSTLYLQMDSLRSEDTATYYCARHGTLYFDYWGQGVMVTVS
VL: QFTLTQPKSVSGSLRSTITIPCERSSGDIGNTYVSWYQQHLGRPPINVIYADDQRPSEVSDRFSGSIDSSSNSASLTITNLQMDDEADYFCQSYDSNIDGPVFGGGTKLTVL
notes: Rat monoclonal antibody from a hybridoma; also called rat mAb 47F3
- binding result [1]: binds

B23: 51G4 (antibody, V domains shown)
VH: EVQLVESGGGLVQPGRSMKLSCAALGFTFSNYYMAWVRQAPTKGLEWVASISTGGGNTYYRDSVKGRFTISRDNAKNTLYLQMDSLRSEDTATYYCARHGTIAAMDYWGQGVMVTVSS
VL: B22 VL with S25N, S26N, N31D, T32S, N47I
notes: Rat monoclonal antibody from a hybridoma; also called rat mAb 51G4
- binding result [1]: binds

B24: 49D3 (antibody, V domains shown)
VH: EVQLVESGGGLVQPGRSMKLSCAASGFTFSNYYMAWVRQAPTKGLEWVASISTGGGNTYYRDSVKGRFTISRDNAKSTLYLQMDSLRSEDTATYYCARHGTLYFDYWGQGVMVTVSS
VL: B22 VL with N31D, T32S
notes: Rat monoclonal antibody from a hybridoma; also called rat mAb 49D3
- binding result [1]: binds

B25: 53B3 (antibody, V domains shown)
VH: B23 VH with L25F, S30N, Y59F, A75V, N77S, T78I, Y80S
VL: B22 VL with S25T, N31D, T32N
notes: Rat monoclonal antibody from a hybridoma; also called rat mAb 53B3
- binding result [1]: binds

B26: 27A10 (antibody, V domains shown)
VH: B24 VH with A23T, S88A, G100T, T101M, L102G
VL: B22 VL with N31D, T32N, S96G, N97K, D99E, G100I
notes: Rat monoclonal antibody from a hybridoma; also called rat mAb 27A10
- binding result [1]: binds

B27: 10A12 (antibody, V domains shown)
VH: B24 VH with Q13K, S77R, A97G
VL: B22 VL with N31D, T32S, A51V, N80D
notes: Rat monoclonal antibody from a hybridoma; also called rat mAb 10A12
- binding result [1]: binds
